Reference: patent US20230372503A1, “CONJUGATE OF FUNCTIONAL POLYPEPTIDE VARIANT, AND USE THEREOF” (PROABTECH INC., priority 2020, published 2023)

Experiment: Pharmacokinetics (PK) of hGH variant-HSA conjugate, blood level by sandwich ELISA
Type: in vivo
Settings: 7-week-old male ICR mice, 65 nmol/kg intravenous tail injection, blood 0.5-24 h
Experimental: For pharmacokinetic evaluation of the hGH variant-HSA conjugate, 7-week-old male ICR mice (n=6) were used. 65 nmol/kg each of hGH variant-HSA (L52) and hGH variant-HSA (Q141) was intravenously injected into the tail, blood collection was performed at 0.5, 4, 8, 12, and 24 hours after injection, and centrifugation was performed at 2,500 rpm for 10 minutes, followed by storing at −20° C. As a comparative group, Norditropin (somatropin, Novo Nordisk) was administered at the same concentration, and then compared with the above sample.
The hGH variant-HSA conjugate in blood was analyzed by sandwich ELISA (human growth hormone (GH) DouSet ELISA, R&D Systems). An anti-hGH capture antibody was added to coat an immunoplate at 4° C. overnight, and a reaction was blocked with 1% BSA in PBS at 37° C. for 1 hour. The blood sample collected and was diluted on the washed plate and left for 2 hours, and then treated with an anti-hGH detection antibody at room temperature for 2 hours. After treating the detection antibody with streptavidin-HRP at room temperature for 1 hour, 100 μL of a substrate was treated for 5 minutes and then 2N H2SO4 was treated to stop the reaction. Afterward, a microplate reader (Hidexsense, Finland) was used to measure an optical density at 450 nm. […]

Work on “Norditropin: comparative group, Norditropin (somatropin, Novo Nordisk)” yielded a half-life of 30 min.
